The record followed here is article PMC7807878, “Development of an engineered peptide antagonist against periostin to overcome doxorubicin resistance in breast cancer” (BMC Cancer, 2021).

What all share (type): cell-based
In assay [1] the test system is MCF-7 cells. The assay can be described thus: Drug sensitivity (MTS), MCF-7. The conditions noted are these: doxorubicin treated MCF-7, rPN treatment experiment. Here is the method:
(§1) Determination the IC50 of BCA cells in response to chemotherapeutic drugs was analyzed by MTS assay. The experiment started from 5 × 10^3 of BCA cells in 100 μl medium that were seeded in 96-well plates for 24 h, then media was changed with different concentrations of new chemotherapeutic drugs [doxorubicin (S1208), paclitaxel (S1150), cisplatin (S1166), 5-fluorouracil (5-FU) (S1209) and gemcitabine (S1714) that were purchased from Selleck Chemicals, Houston, TX, USA] with or without rPN and anti-PN peptide for a further 48 h. After that, cell viability was determined by the MTS assay. Combination index (CI) was calculated by IC50 of combination of drug and PN or anti-PN peptide divided by IC50 of chemotherapeutic drug alone.
(§2) ANOVA test or Student’s t-test were applied for statistical analysis of the experiments. GraphPad Prism® version 7.04 software (GraphPad Software, San Diego, CA, USA) was used in calculation of IC50 values of chemotherapeutic drugs and PASW Statistics software version 18 (SPSS, IBM, Armonk, NY, USA) was used for other analysis. Dose-responses were compared by Holm-Sidak’s multiple comparison test. Mann-Whitney ranked-sum test was used for comparisons between normal and patient serum PN. Chi-square or Fisher’s exact test were used to determine the correlation between PN expression and clinical data in BCA patients. […]

For assay [2], the system named is MCF-7 cells. The assay can be described thus: Proliferation assay (MTS), MCF-7. The note with it: rPN 100 ng/ml, 72 h, not statistically significant. Here is the method: (§3) The proliferation assay of BCA cells was determined by the cell viability assay using CellTiter 96® Aqueous One Solution Cell Proliferation Assay (MTS assay) (Promega, Madison, WI, USA). Briefly, 3 × 10^3 cells in 100 μl medium were seeded in 96-well plates for 24 h. The day 1 baseline determination used the MTS assay following company instructions. For the experiment, cells were placed into new media containing 2% FBS with or without rPN (100 ng/ml) and anti-PN peptide (1 μM) and cells were cultured for a further 72 h. After treatment, cell viability was measured by the MTS assay. Proliferation rate was calculated as the folding of cell numbers increased from the baseline.

In assay [3] the test system is MDA-MB-231 cells. The assay can be described thus: Wound healing migration assay, MDA-MB-231. The conditions noted are these: rPN 100 ng/ml vs untreated control; P-value = 0.033. Here is the method:
(§4) The wound healing assay was performed to determine migration activity of the BCA cells after treatment under various conditions. Briefly, 5 × 10^4 cells of parental BCA cells or mock/PN-transfected cells were seeded in 24-well culture plates with their regular media for 24 h and media changed to 1% FBS with or without rPN (100 ng/ml) and anti-PN peptide (1 μM) and culture continued for 1 day until they reached approximately 95% confluency. Wounds were applied by scratching using 200 μl micropipette tip in a single straight line. The media with floating cells would be removed and refilled with the new experimental media. The culture process would be continued for a further 24 h and photos of the area would be taken at 8 h intervals. The migration area would be analyzed from the photos taken using TScratch version 1.0 software (https://github.com/cselab/TScratch) and migration activity calculated as μm^2/h. Independent duplicated experiments were performed.

Assay [4] has as its system MDA-MB-231 cells. The assay can be described thus: Proliferation assay (MTS), MDA-MB-231. The conditions noted are these: rPN 100 ng/ml, 72 h, P-value = 0.004. As for the experimental part: as §3
The subject of assay [5] is MCF-7 cells. The assay can be described thus: Wound healing migration assay, MCF-7. The conditions noted are these: rPN 100 ng/ml vs untreated control; P-value = 0.030. As for the experimental part: as §4
Assay [6] relates to survivin expression in BCA cells. The assay can be described thus: Western blot, survivin expression. The conditions noted are these: parental BCA cells (MDA-MB-231, MCF-7), PN alone, duplicate experiments. Here is the method: (§5) To determine the secreted PN amount in conditioned-media of each cell, 3 × 10^5 cells were seeded into 6-well plates with 3 ml of complete media. Cell media were removed the next day and washed with phosphate-buffered saline (PBS), and serum free media was added. Media was collected at 24 h, centrifuged and supernatant was taken and concentrated by Vivaspin®6 (VS0691, Sartorius, Goettingen, Germany). Protein concentration was determined by Bradford reagent (#5000006, Bio-Rad Laboratories, Hercules, CA, USA) and the amounts were adjusted to 5 μg per loading. To determine protein expression or phosphorylation in the cellular part, 2 × 10^6 cells were lysed with RIPA buffer (sc-24,948, Santa Cruz Biotechnology, Inc., Dallas, TX, USA). Each sample was separated by sodium dodecyl sulfate (SDS) polyacrylamide gel electrophoresis (PAGE) and transferred to PVDF membrane. […] HRP was detected by Pierce™ enhanced chemiluminescence (ECL) reagent (Thermo Fisher Scientific) and chemiluminescence signal was detected by G:BOX gel documentation system (Syngene, Cambridge, UK). Expression level of PN was determined by ImageJ version 1.52a software (National Institutes of Health, Bethesda, MD, USA).
(§6) Parental BCA cells were treated with PN and anti-PN peptides and the intracellular signaling pathway determined by western blot analysis. Akt phosphorylation and expression of survivin were detected. […]
For orientation: Immunoblotting shows a protein as a band on a membrane.

For assay [7], the system named is MDA-MB-231 cells. The assay can be described thus: Drug sensitivity (MTS), MDA-MB-231. The note with it: doxorubicin treated MDA-MB-231, rPN treatment experiment. As for the experimental part:
as §1, §2

Assay [8] relates to Akt phosphorylation (pAKT) in BCA cells. The assay can be described thus: Western blot, Akt phosphorylation. The note with it: parental BCA cells (MDA-MB-231, MCF-7), PN alone, duplicate experiments. Here is the method: as §5, §6

B1: rPN: recombinant PN (periostin), BioVendor (protein)
chain: NNHYDKILAHSRIRGRDQGPNVCALQQILGTKKKYFSTCKNWYKKSICGQKTTVLYECCPGYMRMEGMKGCPAVLPIDHVYGTLGIVGATTTQRYSDASKLREEIEGKGSFTYFAPSNEAWDNLDSDIRRGLESNVNVELLNALHSHMINKRMLTKDLKNGMIIPSMYNNLGLFINHYPNGVVTVNCARIIHGNQIATNGVVHVIDRVLTQIGTSIQDFIEAEDDLSSFRAAAITSDILEALGRDGHFTLFAPTNEAFEKLPRGVLERIMGDKVASEALMKYHILNTLQCSESIMGGAVFETLEGNTIEIGCDGDSITVNGIKMVNKKDIVTNNGVIHLIDQVLIPDSAKQVIELAGKQQTTFTDLVAQLGLASALRPDGEYTLLAPVNNAFSDDTLSMDQRLLKLILQNHILKVKVGLNELYNGQILETIGGKQLRVFVYRTAVCIENSCMEKGSKQGRNGAIHIFREIIKPAEKSLHEKLKQDKRFSTFLSLLEAADLKELLTQPGDWTLFVPTNDAFKGMTSEEKEILIRDKNALQNIILYHLTPGVFIGKGFEPGVTNILKTTQGSKIFLKEVNDTLLVNELKSKESDIMTTNGVIHVVDKLLYPADTPVGNDQLLEILNKLIKYIQIKFVRGSTFKEIPVTVYTTKIITKVVEPKIKVIEGSLQPIIKTEGPTLTKVKIEGEPEFRLIKEGETITEVIHGEPIIKKYTKIIDGVPVEITEKETREERIITGPEIKYTRISTGGGETEETLKKLLQEEVTKVTKFIEGGDGHLFEDEEIKRLLQGDTPVRKLQANKKVQGSRRRLREGRSQ
In the case of B1, the entries for the “Combination index (CI) of PN” value in the assay on MCF-7 cells [1] and with MDA-MB-231 cells [7] were 1.39 and 2.36, respectively. The “Effect of rPN on proliferation” value with MCF-7 cells [2] was “could increase cell numbers”; in the assay on MDA-MB-231 cells [4] it was “significantly showed induction of cell proliferation”. Further, the “Effect of rPN on migration rate” value with MDA-MB-231 cells [3] and in the assay with MCF-7 cells [5] was “had a higher migration rate than the untreated control with statistical significance” each time. In addition, the “Effect of PN on survivin expression” value in assay [6] was “could increase phosphorylation of Akt and survivin expression in all BCA cells”. For the same molecule, the “Effect of PN on Akt phosphorylation” value in assay [8] is on record as “could increase phosphorylation of Akt”.
